In article PMC5686756, “IKKγ-Mimetic Peptides Block the Resistance to Apoptosis Associated with Kaposi's Sarcoma-Associated Herpesvirus Infection” (Journal of Virology, 2017):

Target: ks-vFLIP (purified, thermofluor assay) (Kaposi's sarcoma-associated herpesvirus (KSHV)) (UniProt Q76RF1)
Assay: thermofluor (thermal shift); 30 μM ks-vFLIP combined with IKKγ or mimetic peptides, SYPRO orange 1:1,000, 96-well plate, thermal denaturation

Sequence of IKKγ fragment encompassing residues 150 to 272 (Q9Y6K9 150-272): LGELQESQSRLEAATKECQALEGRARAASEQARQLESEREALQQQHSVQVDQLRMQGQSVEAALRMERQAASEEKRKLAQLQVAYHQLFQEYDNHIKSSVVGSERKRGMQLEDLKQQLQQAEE
Sequence of unmodified IKKγ 30-mer peptide (residues 224 to 253) (Q9Y6K9 224-253): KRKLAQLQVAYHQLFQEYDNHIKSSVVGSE

Substance | shift in melting temperature at 100 μM [°C] | shift in melting temperature at 30 μM [°C]
unmodified IKKγ 30-mer peptide (residues 224 to 253) (from UniProt Q9Y6K9 224-253) | 4 | 
IKKγ fragment encompassing residues 150 to 272 (from UniProt Q9Y6K9 150-272) (domain or fragment) |  | 8
unmodified IKKγ 21-mer peptide (residues 226 to 248) (from UniProt Q9Y6K9 226-248) | 4 | 
